The values below come from patent publication US20250243287A1 (SHENGHE CHINA BIOPHARMACEUTICAL, published 2025).

B1: Hu-2-Z5 (antibody, V domains shown)
VH: QVQLVQSGAEVKKPGASVKVSCKASGYTFTDYEMHWVRQAPGQGLEWMGAIDPETGATAYNQKFKGRVTLTADTSISTAYMELSRLRSDDTVVYYCASRAGGRGRFAYWGQGTLVTVSS
VL: EVVMTQSPGTLSLSPGERATLSCRSSQSLVHSSGNTYLHWYQQKPGQSPRLLIYKVSNRFSGIPDRFSGSGSGTDFTLTISRLEPEDFAVYFCSQTTHVPYTFGGGTKLELK
notes: Humanized from CH-2; also called humanized antibody Hu-2-Z5
B2: Hu-2-Z4 (antibody, V domains shown)
VH: B1 VH
VL: B1 VL with V2I, M4L, S48A, F92Y
notes: Humanized from CH-2; also called humanized antibody Hu-2-Z4
B3: Hu-2-Z1 (antibody, V domains shown)
VH: B1 VH with L70S, A72R, S98R
VL: B1 VL with V2I, M4L, S48A, F92Y
notes: Humanized from CH-2; made by the aforementioned method (human IgG framework); also called humanized antibody Hu-2-Z1
B4: Hu-2-Z2 (antibody, V domains shown)
VH: B1 VH with L70S, A72R, S98R
VL: B1 VL
notes: Humanized from CH-2; also called humanized antibody Hu-2-Z2
B5: Hu-2-Z7 (antibody, V domains shown)
VH: B1 VH with A97K
VL: B1 VL with V2I, M4L, S48A, F92Y
notes: Humanized from CH-2; also called humanized antibody Hu-2-Z7
B6: Hu-2-Z9 (antibody, V domains shown)
VH: B1 VH with A97K
VL: B1 VL with E1D, G9L, R50K
notes: Humanized from CH-2; also called humanized antibody Hu-2-Z9
B7: Hu-2-Z12 (antibody, V domains shown)
VH: B1 VH with G42V, Q43R, A97K
VL: B1 VL with E1D, G9L, R50K
notes: Humanized from CH-2; also called humanized antibody Hu-2-Z12
B8: Hu-2-Z8 (antibody, V domains shown)
VH: B1 VH with A97K
VL: B1 VL
notes: Humanized from CH-2; also called humanized antibody Hu-2-Z8
B9: Hu-2-Z10 (antibody, V domains shown)
VH: B1 VH with G42V, Q43R, A97K
VL: B1 VL with V2I, M4L, S48A, F92Y
notes: Humanized from CH-2; also called humanized antibody Hu-2-Z10
B10: Hu-2-Z11 (antibody, V domains shown)
VH: B1 VH with G42V, Q43R, A97K
VL: B1 VL
notes: Humanized from CH-2; also called humanized antibody Hu-2-Z11
B11: Hu-2-Z6 (antibody, V domains shown)
VH: B1 VH
VL: B1 VL with E1D, G9L, R50K
notes: Humanized from CH-2; also called humanized antibody Hu-2-Z6
B12: Hu-2-Z3 (antibody, V domains shown)
VH: B1 VH with L70S, A72R, S98R
VL: B1 VL with E1D, G9L, R50K
notes: Humanized from CH-2; also called humanized antibody Hu-2-Z3
B13: Hu-15-Z6 (antibody, V domains shown)
VH: EVQLVESGGGLVQPGGSLRLSCAASGFTFNTNAMNWVRQAPGKGLEWVGRIRTKSNNYATYYAESVRDRFTISRDDSKNSLYLQMNSLKTEDTAMYYCVRGGYGIRGDYTMDYWGQGTLVTVSS
VL: DIVMTQSPPTLSLSPGERATLSCRSSKSLLHSNGNTYLYWFQQKPGQSPQLLIYRMSNLASGIPDRFSGSGSGTDFTLTISRLEPEDFAVYYCMQHLEYPFTFGQGTKLEIK
notes: Humanized from CH-15; also called humanized antibody Hu-15-Z6
B14: Hu-15-Z4 (antibody, V domains shown)
VH: B13 VH
VL: B13 VL with D1E, M4L, P9G, F41Y, S48A, Q50R
notes: Humanized from CH-15; also called humanized antibody Hu-15-Z4
B15: Hu-15-Z8 (antibody, V domains shown)
VH: B13 VH
VL: B13 VL with G34A
notes: Humanized from CH-15; also called humanized antibody Hu-15-Z8
B16: Hu-15-Z5 (antibody, V domains shown)
VH: B13 VH
VL: B13 VL with D1E, P9G, Q50R
notes: Humanized from CH-15; also called humanized antibody Hu-15-Z5
B17: Hu-15-Z1 (antibody, V domains shown)
VH: B13 VH with M95V, V99A
VL: B13 VL with D1E, M4L, P9G, F41Y, S48A, Q50R
notes: Humanized from CH-15; made by the aforementioned method (human IgG framework); also called humanized antibody Hu-15-Z1
B18: Hu-15-Z7 (antibody, V domains shown)
VH: B13 VH
VL: B13 VL with N33Q
notes: Humanized from CH-15; also called humanized antibody Hu-15-Z7
B19: Hu-15-Z9 (antibody, V domains shown)
VH: B13 VH with D108E
VL: B13 VL
notes: Humanized from CH-15; also called humanized antibody Hu-15-Z9
B20: Hu-15-Z2 (antibody, V domains shown)
VH: B13 VH with M95V, V99A
VL: B13 VL with D1E, P9G, Q50R
notes: Humanized from CH-15; also called humanized antibody Hu-15-Z2
B21: Hu-15-Z3 (antibody, V domains shown)
VH: B13 VH with M95V, V99A
VL: B13 VL
notes: Humanized from CH-15; also called humanized antibody Hu-15-Z3
B22: Hu-15-Z10 (antibody, V domains shown)
VH: B13 VH with G107A
VL: B13 VL
notes: Humanized from CH-15; also called humanized antibody Hu-15-Z10
B23: Ms-8 (antibody, V domains shown)
VH: EVQLVETGGGLVQPKGSLKLSCAASGFTFNTYAMNWVRQTPEKGLEWVARIRTKSNNYATSYADSVKDRFTISRYDSQNMLYLQMNNLKTEDTAMYYCVRGGYGIRGDYAMDYWGQGTSVTVSS
VL: DIVMTQAAPSVPVTPGESVSISCRSTKSLLHSNGNTYLYWFLQRPGQSPQLLIYRMSNLASGVPDRFSGSGSGTTFTLRISRVEAEDVGVYYCMQHLEYPFTFGSGTKLEIK
notes: Mouse hybridoma antibody; also called mouse-derived anti-CCR8 antibody Ms-8
B24: Ms-2 (antibody, V domains shown)
VH: QVQLQQSGAELARPGASVTLSCKASGYTFTDYEMHWVKQTPVRGLEWIGAIDPETGATAYNQKFKGKATLTADKSSNTAYMELRRLTSEDSAVYYCKSRAGGRGRFAYWGQGTLVTVSA
VL: DVVMTQTPLSLPVRLGDQASISCRSSQSLVHSSGNTYLHWYLQKSGQSPKLLIYKVSNRFSGVPDRFSGSGSGTDFTLKISRVEAEDLGVYFCSQTTHVPYTFGGGTKLEIK
notes: Mouse hybridoma antibody; also called mouse-derived anti-CCR8 antibody Ms-2
B25: Ms-15 (antibody, V domains shown)
VH: B23 VH with Y32N, T40A, E42G, A49G, S61Y, K67R, N79G, A110T
VL: B23 VL with T26S, T75A
notes: Mouse hybridoma antibody; also called mouse-derived anti-CCR8 antibody Ms-15
B26: Ms-1 (antibody, V domains shown)
VH: QVQLQQSGAELVRPGASVTLSCKASGYTFTAYEMHWVRQTPVNGLEWIGAIDPKTGVTAYNQKFKDKAIMTADKYSSTAYMDLRSLTSEDSAVYYCTSRAGGRGRFAYWGQGTLVTVSA
VL: B24 VL with R14S, G34A, S45P, L51V, V90L, T96S, Y101F
notes: Mouse hybridoma antibody; also called mouse-derived anti-CCR8 antibody Ms-1
B27: chimeric antibody CH-2 (antibody, V domains shown)
VH: B24 VH
VL: B24 VL
notes: Variable domains of Ms-2 in a human IgG framework, expressed in CHO cells

Numbering of substitutions follows the chain as printed.

T1 sequence (P51685 whole entry): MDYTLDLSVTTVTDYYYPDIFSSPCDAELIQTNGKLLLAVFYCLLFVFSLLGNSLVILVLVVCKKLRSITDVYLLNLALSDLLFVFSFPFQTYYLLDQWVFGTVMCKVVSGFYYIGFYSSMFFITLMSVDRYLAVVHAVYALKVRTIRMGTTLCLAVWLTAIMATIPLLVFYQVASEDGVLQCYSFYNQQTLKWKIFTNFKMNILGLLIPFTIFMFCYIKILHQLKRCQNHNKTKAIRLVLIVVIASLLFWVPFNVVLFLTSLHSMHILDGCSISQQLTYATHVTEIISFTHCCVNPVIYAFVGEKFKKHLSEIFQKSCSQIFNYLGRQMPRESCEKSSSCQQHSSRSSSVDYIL

The first assay addresses T1, human CCR8 (chemokine (C-C motif) receptor 8) (human, UniProt P51685 1-355).
T1 construct: whole, on cells; also called CCR8-CHO-K1 cells; CHOK1-CCR8 cells
The assay can be described thus: flow cytometry on CHOK1-CCR8 cells, steps of Example 6. On the technique in general: In flow cytometry, cells or beads pass a laser one at a time.
As for B1, the binding result was “binds”. B2: the binding result is “binds”. As to B3, the binding result is reported as “binds”. In the case of B4, the binding result is “binds”. For B5, the binding result was “binds”. For B6, the binding result is “binds”. On to B7, for which the binding result is listed as “binds”.

On to B8, for which the binding result was “binds”. In the case of B9, the binding result is “binds”. Same read-out and setting: then B10, with “binds”; and B11, with “binds”.

B12: the binding result is reported as “binds”. Turning to B13, the binding result is given as “binds”.

Take B14: the binding result is “binds”. Take B15: the binding result is listed as “binds”. Consider B16, for which the binding result is reported as “binds”. Turning to B17, the binding result is recorded as “binds”. Consider B18, for which the binding result is on record as “binds”. B19: the binding result was “binds”. B20: the binding result is listed as “binds”. For the molecule B21, the binding result is “binds”. Turning to B22, the binding result is given as “binds”.

For the next assay, the target named is T1, human CCR8 (chemokine (C-C motif) …). Briefly: flow cytometry on CCR8-CHO cells. The procedure: (§1) The antibody to be tested was taken as the initial concentration of 50 μg/mL and diluted 5-fold with 6 gradients. The cells CCR8-CHO-K1 in the incubator were taken out, and the cell suspension was transferred to a 15 mL centrifuge tube, centrifuged, and counted by resuspension in PBS. A blank control group (Blank), a negative control group (NC), an experimental group, a positive control group (positive control BMK derived from the 1K17 sequence of US20210277129) and the irrelevant antibody group were kept. The cell suspension was spread in a 96-well plate according to about 3×10⁵ cells/well. Centrifugation (1000 rpm, 5 min) was performed, followed by washing with PBS, re-centrifugation, and repeated twice to remove media residues. The supernatant was discarded, 100 μL of primary antibody solution and irrelevant antibody solution were added to the experimental group and irrelevant antibody group, respectively, and the cells were resuspended and incubated at room temperature for 1 h. The blank group, and the negative control group were incubated with an equal amount of PBS.
(§2) After 1 h, PBS was added to wash twice. […] After the supernatant was discarded, 120 μL of PBS was added to resuspend and sequentially flow cytometry was performed to detect the mean fluorescence intensity. […]
With B23, the binding result was “binds”. In the case of B24, the binding result is on record as “binds”.

The next assay shares this target. Briefly: flow cytometry on CCR8-CHO-K1 cells. Here is the method:
as §1, §2
In the case of B25, the binding result is “binds”.

On to B26, for which the binding result is recorded as “binds”.

The next assay has the same target. The assay can be described thus: flow cytometry on CCR8-CHO-K1 cells, PE anti-human IgG Fc secondary. The procedure:
as §1, with “The supernatant was discarded, 100 μL of primary antibody solution and irrelevant antibody solution were added to the experimental group and irrelevant antibody group, respectively, and the cells were resuspended and incubated at room temperature for 1 h. The blank group, and the negative control group were incubated with an equal amount of PBS.” left out
as §2
The binding activity of the chimeric antibodies was detected by FACs method, the secondary antibody was PE F(ab′) 2 sheep anti-human IgG Fc (Biolegend, Cat: 398004), and the assay procedure was the same as Example 6, and the results are shown in FIG. 2.
For the molecule B27, the binding result is recorded as “binds”.
